Source: the nanobody polyreactivity screen of Harvey et al. (2022)

test: yeast display, Sf9 membrane polyspecificity reagent, FACS + sequencing; frameworks hold sequencing errors
Procedure, shortened: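 Galactose-induced (36–48 hours) yeast carrying a synthetic nanobody display library were exposed to 10% biotinylated, detergent-solubilized Sf9 membrane reagent at 4 °C for 1 hour. FACS followed streptavidin microbead enrichment, using low and high (top ~1%) gates for expression (anti-HA) and reagent binding (streptavidin). Colony PCR, MiSeq 2 × 250 sequencing and CDR-length filtering followed. Labels for polyreactivity reflect the gate of origin.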

Row | Sequence | polyreactivity (PSR sort gate)
1 | QVQLVESGGGLVQAGGSLRLSCAASGFIFRYYAMGWYRQAPGKERELVAAISRSGGSTYYADSVKGRFTISRDNAKNTVYLQMNSLKPEDTAVYYCNKDPRGRIPVPGTWIMDYWGQGTQVTVSS | high polyreactivity
2 | QVQLVESGGGLVQAGGSLRLSCAASGFIFRYYAMGWYRQAPGKERELVAAISSSGGCTYYADSVKGRFTISRDNSKNTVYLLMNRMKPEDTAVYFCAARDLRKLFSLYPYYYWGQGTHVTVSS | high polyreactivity
3 | QVQLVESGGGLVQAGGSLRLSCAASGFIFRYYAMGWYRQAPGKERELVAAISWSGGSTYYADSVKGRFTISRDNAKNTVYLQMNSLKPEDTAVYYCNAVTTYGEYDYWGQGTQVTVSS | high polyreactivity
4 | QVQLVESGGGLVQAGGSLRLSCAASGFIFRYYAMGWYRQAPGKERELVAAISYSGGYTYYADSVKGRFTISRDNAKNTVYLQMNSLKPEDTAVYYCAAVLRTRDHPQPNYEYWGQGTQVTVSS | high polyreactivity
5 | QVQLVESGGGLVQAGGSLRLSCAASGFIFRYYAMGWYRQAPGKERELVAAITNSGVSTYYADSVKGRFTISRDNAKNTVYLQMNSLKPEDTAVYYCAATYRTRTSQYDYWGQGTQVTVSS | high polyreactivity
6 | QVQLVESGGGLVQAGGSLRLSCAASGFIFRYYAMGWYRQAPGKERELVATISSGGGTHYADSVKGRFTISRDNAKNTVYLQMNCLKPEDTAVYYCNKVSYRRRSVLLHYDYWGQGTQVTVSS | high polyreactivity
7 | QVQLVESGGGLVQAGGSLRLSCAASGFIFRYYAMGWYRQAPWKERELVASITRSGGRTYYADSVKGRFTISRDNAKNTVYLQMNSLKPEDTAVYYCAARHYRSEYEYDYWGQGTQVTVSS | high polyreactivity
8 | QVQLVESGGGLVQAGGSLRLSCAASGFIFRYYARGWYRQGPGKERELVAAIDESGGSTYYADSVKGSFTISRDNSKKTVYLQMNSLKAVDTEVYYCAAYSNFYLNYGYGYWGQVTQVTVSS | high polyreactivity
9 | QVQLVESGGGLVQAGGSLRLSCAASGFIFRYYTMGWYRQAPGKERELVATITSGGSTYYADSVKGRFTISRDNAKNTVYVQMNSLKPEDTAVYYCAKVRDVLWRFNYWGQGTQVTVSS | high polyreactivity
10 | QVQLVESGGGLVQAGGSLRLSCAASGFIFSANAMGWYRQAPGKERELVAVISWNGDGTYYADSVKGRFTISRDNAKNTVYLQMNSLKAEDTAVYYCAALSYAYRSQSRRYGYRFDYWGQGTQVTVSS | high polyreactivity
11 | QVQLVESGGGLVQAGGSLRLSCAASGFIFSAYVMGWYRQAPGKERELVAAISQSGARTYYADSVKGRFTISRDNAKNTVYLQMNSLKPEDTAVYYCAADRRDFRTYDYWGQGTQVTVSS | high polyreactivity
12 | QVQLVESGGGLVQAGGSLRLSCAASGFIFSCYAMGWYRQAPGKERELFAAISSSGVSTYYADSVKGRFTISRDNAKNTVYLHMNSLKPEDTAVNYCNAYGSVWDRGEYDYEYWGQGTQVTVSS | low polyreactivity
13 | QVQLVESGGGLVQAGGSLRLSCAASGFIFSDNAMGWYRQAPGKERELVSAITDDGDTTYYADSVKGRFTISRDNAKNTVYLQMNSLKPEDTAVYYCATEIEDDESSGPYYYVGYGYWGQGTQVTVSS | high polyreactivity
14 | QVQLVESGGGLVQAGGSLRLSCAASGFIFSGNAMGWYRQAPGKERELVATITTGGTTKYADSVKGRFTISRDNAKNTVYLQMNSLKPEDTAVYYFAKSWSYWYQYYYWGQGTQVTVSS | low polyreactivity
15 | QVQLVESGGGLVQAGGSLRLSCAASGFIFSGYAMGWSRQAPGKERELVAAITWSGSNTFYADSVKGRFTISRDNAKNTVYLQMNSLKPEDTAVYYCNAVSKYKRSDYYYWGQGTQVTVSS | high polyreactivity
16 | QVQLVESGGGLVQAGGSLRLSCAASGFIFSGYAMGWYRQAPGKEREFVAAISWSGSSTYYADSVKGRFTISRDNAKNTVYLQMNSLKPEDTALYYCNAVRQHPPRYSRYDYWGQGTQVTVSS | high polyreactivity
